Reference: patent US20120196335A1, “LIGF-TYPE TRANSFORMANTS FOR BIOCONVERSION OF LIGNIN-DERIVED COMPOUNDS” (priority 2010, published 2012)

Columns and labels:
[1] = LigDFEG gene cluster, FIG. 2B; cited from earlier work
[2] = in vitro biochemical assay for beta-etherase activity on fluorescent substrate MUAV (clarified E. coli cell extracts); conditions: 0.1 mM MUAV substrate; E. coli cell extracts expressing the protein
Source text: The model substrate synthesis 150 for use in the biochemical screening for selective activity can be outsourced through a contract research organization (CRO). The enzyme discovery effort can initially be focused on identifying potential beta-etherase candidate genes identified through bioinformatic methods. […] The fluorescent substrate α-O-(β-methylumbelliferyl)acetovanillone (MUAV), for example, can be used in in vitro assays to identify beta-etherase function (Acme Biosciences, Mt. View, Calif.). The formation of 4 methylumbelliferone (4MU) upon hydrolysis of the aryl ether bond can be monitored by fluorescence, for example, at λex=365 nm and λem=450 nm (or 460 nm).
The enzyme screening 155 is done to identify novel etherases 160. […] Expression of the beta-etherase genes can be done in 5 ml or 25 ml samples of the recombinant E. coli strains in LB medium using induction with IPTG. Following induction, and cell harvest, cell pellets can be lysed using the BPER (Invitrogen) cell lysis system. […] The formation of 4 methylumbelliferone (4MU) upon hydrolysis of the aryl ether bond in MUAV can be monitored by fluorescence at λex=365 nm and λem=460 nm, and can provide quantitative measurement of beta-etherase function. Cell extracts of E. coli transformed with the S. paucimobilis ligE and ligF genes can be the assay positive controls. Test or unknown samples can include, for example, E. coli strains expressing putative beta-etherase genes from N. aromaticovorans.
This example describes a method for gene expression in E. coli, as well as beta-etherase biochemical assays. Expression of known and putative beta-etherase genes was performed using 5 ml cultures of the recombinant E. coli strains described herein in Luria Broth medium by induction of gene expression using isopropylthiogalactoside (IPTG) to a final concentration of 0.1 mM. Following induction, and cell harvest, the cells were disrupted using either sonication or the BPER (Invitrogen) cell lysis system.
In vitro reactions were performed in a total volume of 200 ul and contained: 25 mM TrisHCl pH 7.5; 0.5 mM dithiothreitol; 1 mM glutathione; 0.05 mM or 0.1 mM MUAV; 10 ul of clarified cell extract used to initiate the reactions. Following incubation for 2.5 hours at room temperature, a 50 ul sample of the reactions was terminated using 150 uL of 300 mM glycine/NaOH buffer pH 9. The formation of 4 methylumbelliferone (4MU) upon hydrolysis of the aryl ether bond was monitored by the increase in fluorescence at λex=360 nm and λem=450 nm using a Spectramax UV/visible/fluorescent spectrophotometer.
The total protein concentrations of the cell lysates were determined using the BCA reagent system for protein quantification (Pierce).
Induction might be also performed using IPTG concentrations in the range of 0.01-1 mM. Cell disruption might be also performed using toluene permeabilization, French pressure techniques, or using multiple freeze/thaw cycles in conjunction with lysozyme. Assay conditions might be varied to include TrisHCl at 10-150 mM concentrations and in the pH range of 6.5-8.5; 0-2 mM dithiothreitol; 0.05-2 mM glutathione; 0.01-5 mM MUAV substrate; 22-42° C. reaction temperatures. The biochemical assay might be performed as a fixed time point assay with reaction times ranging from 5 minutes-12 hours, or performed continuously without quenching with glycine/NaOH buffer to extract enzyme kinetic parameters.

B1: LigF: S. paucimobilis beta-etherase, positive control, GenBank BAA02031.1, SEQ ID NO:513 (protein)
chain: MTLKLYSFGPGANSLKPLATLYEKGLEFEQVFVDPSKFEQHSDWFKKINPRGQVPALWHDGKVVTESTVICEYLEDVFPESGNSLRPADPFKRAEMRVWTKWVDEYFCWCVSTIGWAFGIKAIAQKMSDEEFEEHINKNVPIPEQQLKWRRARNGFPQEMLDEEFRKVGVSVARLEETLSKQDYLVDTGYSLADICNFAIANGLQRPGGFFGDYVNQEKTPGLCAWLDRINARPAIKEMFEKSKREDLLKRQNEKVA
- enzyme activity shown by gene product [1]: β-etherase activity
- total activity (beta-etherase) [2]: 558 rfu/ug
